Assay results published in publication PMC2938849.

Target: Hsp104ΔM (yeast) (UniProt P31539)
Assay: SEC

stoichiometry N: 6
Substance: Hsp104ΔM (from UniProt P31539 1-908) (natural protein)
